Data taken from PMC3420232.

Tests used:
[1] = biological target: TNFR1-TRAILR1-Fas chimeric receptor (TM1) (human) (UniProt P19438); experiment: radioligand binding; equilibrium (saturation) binding on cells: 2x10^5 murine fibroblasts expressing the receptor in PFA (PBS, 2% FCS, 0.002% sodium azide), 125I-TNF 0.25-12.5 ng/ml, 2 h on ice; non-specific binding with 200-fold excess of unlabeled protein; cells spun through phthalate oil; one site binding hyperbola; 51 kDa used for TNF; apparent
[2] = biological target: TNFR1-TRAILR2-Fas chimeric receptor (TM2) (human) (UniProt P19438); experiment: as above
[3] = biological target: TRAILR1-Fas chimeric receptor (human) (UniProt O00220); experiment: radioligand binding; competition on cells: 4x10^5 murine fibroblasts expressing the (chimeric) TRAIL receptor in PFA (PBS, 2% FCS, 0.002% sodium azide), 83 ng/ml 125I-TRAIL with or without unlabeled recombinant human TRAIL (83-5300 ng/ml), 4 hours on ice; cells spun through phthalate oil; 68 kDa used for TRAIL
[4] = biological target: TRAILR2-Fas chimeric receptor (human) (UniProt O14763); experiment: as above

| Kd [1] [nM] | Kd [2] [nM] | IC50 [3] [nM] | IC50 [4] [nM] | Substance |
| --- | --- | --- | --- | --- |
| 225 | 71 | – | – | 125I-labeled recombinant human TNF (from UniProt P01375 77-233) (ligand) |
| – | – | 16.8 | 5.5 | Flag-tagged recombinant human TRAIL (sTRAIL), unlabeled (from UniProt P50591 95-281) (ligand) |
